# Data as given in patent publication US20100196951.
# Molecular target: MazE antitoxin with the Thrombin-recognition sequence LVPRGS in place of VDGK at positions 38 to 41 (UniProt P0AE72)
substance,measurement,value
Biothinylated Thrombin (Novagen),removal of the MazE band on SDS-PAGE after overnight Thrombin treatment (0.01 to 0.08 units),the residual MazE protein was successfully removed from the purified MazF sample by Thrombin treatment (lanes 2 to 5)
